Experimental data published in publication PMC3505976.

What was measured:
[1] = target: T1, hIghmbp2hd (helicase core) (human (Homo sapiens), UniProt P38935 1-652); test: fluorescence anisotropy
T1 sequence: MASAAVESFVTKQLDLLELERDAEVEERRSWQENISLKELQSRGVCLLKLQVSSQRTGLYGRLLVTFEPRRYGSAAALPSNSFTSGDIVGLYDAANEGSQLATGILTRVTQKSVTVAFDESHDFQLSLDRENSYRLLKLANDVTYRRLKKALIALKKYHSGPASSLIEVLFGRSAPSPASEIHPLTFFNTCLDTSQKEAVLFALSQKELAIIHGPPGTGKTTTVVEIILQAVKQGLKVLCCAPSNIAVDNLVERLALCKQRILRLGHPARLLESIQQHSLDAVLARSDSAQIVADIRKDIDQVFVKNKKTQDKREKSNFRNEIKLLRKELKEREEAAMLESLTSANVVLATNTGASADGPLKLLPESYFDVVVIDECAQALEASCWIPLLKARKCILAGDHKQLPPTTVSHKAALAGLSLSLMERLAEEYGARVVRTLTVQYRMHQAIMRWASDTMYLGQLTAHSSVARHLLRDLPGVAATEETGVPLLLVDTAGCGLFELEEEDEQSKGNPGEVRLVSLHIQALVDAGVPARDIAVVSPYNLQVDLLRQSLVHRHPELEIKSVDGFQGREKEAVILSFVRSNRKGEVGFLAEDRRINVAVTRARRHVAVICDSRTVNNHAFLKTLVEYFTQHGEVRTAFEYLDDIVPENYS

[2] = target: T2, mIghmbp2hd-R3H (helicase core + R3H) (mouse, UniProt P40694 1-786); test: fluorescence anisotropy
T2 sequence: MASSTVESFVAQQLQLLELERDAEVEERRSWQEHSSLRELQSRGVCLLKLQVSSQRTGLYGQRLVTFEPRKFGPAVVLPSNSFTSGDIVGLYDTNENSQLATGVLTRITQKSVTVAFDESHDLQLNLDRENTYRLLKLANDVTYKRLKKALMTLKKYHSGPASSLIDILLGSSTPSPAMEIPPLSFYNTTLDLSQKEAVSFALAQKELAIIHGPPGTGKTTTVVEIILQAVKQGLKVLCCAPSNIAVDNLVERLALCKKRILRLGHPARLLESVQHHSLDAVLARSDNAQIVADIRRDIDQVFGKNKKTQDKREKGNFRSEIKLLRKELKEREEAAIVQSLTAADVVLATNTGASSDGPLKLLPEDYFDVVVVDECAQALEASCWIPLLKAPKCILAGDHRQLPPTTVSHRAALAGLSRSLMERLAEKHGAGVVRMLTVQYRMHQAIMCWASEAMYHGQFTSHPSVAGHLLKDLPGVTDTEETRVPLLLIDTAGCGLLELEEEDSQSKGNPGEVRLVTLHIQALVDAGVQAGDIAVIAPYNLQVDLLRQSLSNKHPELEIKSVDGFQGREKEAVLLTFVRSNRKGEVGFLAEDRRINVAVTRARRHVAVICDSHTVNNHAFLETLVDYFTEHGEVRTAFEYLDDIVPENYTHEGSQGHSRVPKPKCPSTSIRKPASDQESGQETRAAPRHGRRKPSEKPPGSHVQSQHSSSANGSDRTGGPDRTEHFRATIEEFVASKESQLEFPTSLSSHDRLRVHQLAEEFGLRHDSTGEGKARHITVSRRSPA

[3] = target: T1, hIghmbp2hd (helicase core); test: crystal structure

UUUUUUUUUUUUUUU (ssRNA) [U15 ssRNA]
Kd [1]: 1080 ± 130 nM
Kd [2]: 107 ± 29 nM

AAAAAAAAAA (ssRNA) [A10 ssRNA]
binding result [3]: binds
